These results are taken from US20170079251.

Holding throughout (assay): cell_activity
Series [1] deals with btPRLR 9.13 TALEN left (synthetic). Particulars: pair value; printed RVDs lack one HD relative to target.
For series [2], the system named is btPRLR 9.11 TALEN right (synthetic). Particulars: pair inactive, bovine fibroblasts.
Series [3] deals with btPRLR 9.7 TALEN right (synthetic). To be noted: pair inactive; printed RVDs read the sense strand.
The test system of series [4] is btPRLR 9.1 TALEN right (synthetic). Particulars: pair value, bovine fibroblasts, TALEN mRNA.
The subject of series [5] is btPRLR 9.9 TALEN right (synthetic). Particulars: pair inactive, bovine fibroblasts.
Series [6] concerns btPRLR 9.4 TALEN left (synthetic). To be noted: pair inactive, but same left RVDs active in 9.5.
Series [7] has as its system btPRLR 9.11 TALEN left (synthetic). Particulars: pair inactive, bovine fibroblasts.
Series [8] relates to btPRLR 9.13 TALEN right (synthetic). To be noted: pair value, bovine fibroblasts.
The subject of series [9] is btPRLR 9.12 TALEN right (synthetic). Particulars: pair value, bovine fibroblasts; also active in zygotes (Table VI).
Series [10] has as its system btPRLR 9.2 TALEN right (synthetic). To be noted: pair inactive, bovine fibroblasts.
Series [11] relates to btPRLR 9.6 TALEN left (synthetic). Particulars: pair inactive, bovine fibroblasts.
Series [12] has as its system btPRLR 9.14 TALEN left (synthetic). Particulars: pair inactive, bovine fibroblasts.
The test system of series [13] is btPRLR 9.3 TALEN right (synthetic). Particulars: pair inactive, bovine fibroblasts.
Series [14] deals with btPRLR 9.6 TALEN right (synthetic). To be noted: pair inactive; one RVD printed as N, read as NN.
Series [15] deals with btPRLR 9.12 TALEN left (synthetic). To be noted: pair value, bovine fibroblasts; also active in zygotes (Table VI).
Series [16] relates to btPRLR 9.8 TALEN right (synthetic). Particulars: pair value, bovine fibroblasts; also active in zygotes (Table VI).
For series [17], the system named is btPRLR 9.8 TALEN left (synthetic). To be noted: pair value, bovine fibroblasts; also active in zygotes (Table VI).
Series [18] deals with btPRLR 9.10 TALEN left (synthetic). To be noted: pair inactive, bovine fibroblasts.
In series [19] the test system is btPRLR 9.2 TALEN left (synthetic). Particulars: pair inactive, bovine fibroblasts.
The test system of series [20] is btPRLR 9.3 TALEN left (synthetic). To be noted: pair inactive, bovine fibroblasts.
Series [21] relates to btPRLR 9.4 TALEN right (synthetic). Particulars: pair inactive, bovine fibroblasts.
Series [22] relates to btPRLR 9.10 TALEN right (synthetic). Particulars: pair inactive, bovine fibroblasts.
The subject of series [23] is btPRLR 9.5 TALEN right (synthetic). Particulars: pair value, bovine fibroblasts.
The test system of series [24] is btPRLR 9.1 TALEN left (synthetic). Particulars: pair value, bovine fibroblasts, TALEN mRNA.
Series [25] relates to btPRLR 9.5 TALEN left (synthetic). Particulars: pair value, bovine fibroblasts.
Series [26] concerns btPRLR 9.14 TALEN right (synthetic). To be noted: pair inactive, bovine fibroblasts.
Series [27] concerns btPRLR 9.9 TALEN left (synthetic). To be noted: pair inactive, bovine fibroblasts.
The test system of series [28] is btPRLR 9.7 TALEN left (synthetic). Particulars: pair inactive, bovine fibroblasts.

Sequence “AAAAGCCTCAAAAACCATTGAAACTGGCAGGGAAGGAAAGGCAACCAAGCAG (double strand) [9.13 left site]” displayed an activity in [1] of 6.8 % Cel-I.
In turn, “CAAAAACCATTGAAACTGGCAGGGAAGGAAAGGCAACCAAGCAGAGGGAGTC (double strand) [9.11 right site]” displayed an activity in series [2] of 0 % Cel-I.
Sequence “CAGACCAACATGCTTTAAAAGCCTCAAAAACCATTGAAACTGGCAG (double strand) [9.7 right site]” displayed an activity in series [3] of 0 % Cel-I.
Sequence “GGCCGGCACCACAGCCACTTCGCTGGACCAAACAGACCAACATGCTTTA (double strand) [9.1 right site]” came in with an activity in [4] of 20.9 % Cel-I.
Sequence “CAGAAGGCTGCAGTTCCAAGCCTGACCAAGACACGGTGTGGCCACG (double strand) [9.9 right site]” showed an activity in series [5] of 0 % Cel-I.
In [6], “GCTTTAAAAGCCTCAAAAACCATTGAAACTGGCAGGGAAGGAAAGGCAACCA (double strand) [9.4 left site]” came in with an activity of 0 % Cel-I.
“CAAAAACCATTGAAACTGGCAGGGAAGGAAAGGCAACCAAGCAGAGGGAGTC (double strand) [9.11 left site]”: the activity in series [7] came out at 0 % Cel-I.
In series [8], “AAAAGCCTCAAAAACCATTGAAACTGGCAGGGAAGGAAAGGCAACCAAGCAG (double strand) [9.13 right site]” returned an activity of 6.8 % Cel-I.
Regarding “TCGCTGGACCAAACAGACCAACATGCTTTAAAAGCCTCAAAAACCATTG (double strand) [9.12 right site]”, in [9], the activity came to 15.9 % Cel-I.
For the sequence “GCTTTAAAAGCCTCAAAAACCATTGAAACTGGCAGGGAAGGAAAGGC (double strand) [9.2 right site]”, the activity in series [10] came to 0 % Cel-I.
“GGCCGGCACCACAGCCACTTCGCTGGACCAAACAGACCAACATGCTTT (double strand) [9.6 left site]” had an activity in [11] of 0 % Cel-I.
In the case of “CAAAAACCATTGAAACTGGCAGGGAAGGAAAGGCAACCAAGCAGAGGGAGTC (double strand) [9.14 left site]”, the activity in [12] was 0 % Cel-I.
The sequence “GGCCGGCACCACAGCCACTTCGCTGGACCAAACAGACCAACATGCTTTAA (double strand) [9.3 right site]” had an activity in series [13] of 0 % Cel-I.
Consider “GGCCGGCACCACAGCCACTTCGCTGGACCAAACAGACCAACATGCTTT (double strand) [9.6 right site]”, for which the activity in series [14] was 0 % Cel-I.
In turn, “TCGCTGGACCAAACAGACCAACATGCTTTAAAAGCCTCAAAAACCATTG (double strand) [9.12 left site]” gave an activity in series [15] of 15.9 % Cel-I.
“GTGGCCACGACCCCAAGACAAAACCCCCTTGATCTCTGCTAAACCCTTGG (double strand) [9.8 right site]” gave an activity in [16] of 10.1 % Cel-I.
“GTGGCCACGACCCCAAGACAAAACCCCCTTGATCTCTGCTAAACCCTTGG (double strand) [9.8 left site]” had an activity in series [17] of 10.1 % Cel-I.
In series [18], “GGCCACGACCCCAAGACAAAACCCCCTTGATCTCTGCTAAACCCTTGGAAT (double strand) [9.10 left site]” returned an activity of 0 % Cel-I.
Take “GCTTTAAAAGCCTCAAAAACCATTGAAACTGGCAGGGAAGGAAAGGC (double strand) [9.2 left site]”: the activity in series [19] was found to be 0 % Cel-I.
In [20], “GGCCGGCACCACAGCCACTTCGCTGGACCAAACAGACCAACATGCTTTAA (double strand) [9.3 left site]” had an activity of 0 % Cel-I.
With “GCTTTAAAAGCCTCAAAAACCATTGAAACTGGCAGGGAAGGAAAGGCAACCA (double strand) [9.4 right site]”, the activity in series [21] is 0 % Cel-I.
For the sequence “GGCCACGACCCCAAGACAAAACCCCCTTGATCTCTGCTAAACCCTTGGAAT (double strand) [9.10 right site]”, the activity in [22] is 0 % Cel-I.
In turn, “GCTTTAAAAGCCTCAAAAACCATTGAAACTGGCAGGGAAGGAAAGGCAACCA (double strand) [9.5 right site]” registered an activity in series [23] of 13.9 % Cel-I.
“GGCCGGCACCACAGCCACTTCGCTGGACCAAACAGACCAACATGCTTTA (double strand) [9.1 left site]”: the activity in series [24] amounted to 20.9 % Cel-I.
As to “GCTTTAAAAGCCTCAAAAACCATTGAAACTGGCAGGGAAGGAAAGGCAACCA (double strand) [9.5 left site]”, in series [25], the activity is 13.9 % Cel-I.
Sequence “CAAAAACCATTGAAACTGGCAGGGAAGGAAAGGCAACCAAGCAGAGGGAGTC (double strand) [9.14 right site]” had an activity in series [26] of 0 % Cel-I.
For “CAGAAGGCTGCAGTTCCAAGCCTGACCAAGACACGGTGTGGCCACG (double strand) [9.9 left site]”, in series [27], the activity is 0 % Cel-I.
Take “CAGACCAACATGCTTTAAAAGCCTCAAAAACCATTGAAACTGGCAG (double strand) [9.7 left site]”: in series [28], the activity came out at 0 % Cel-I.
